Results taken from patent CN113817056A (CHONGQING PREC BIOTECH CO LTD; CHONGQING JINGZHUN BIO …, dated 2021).

Assays:
hCD70-hFc [1] = target: T1, hCD70-hFc (human, UniProt P32970 39-193, limits assumed); experiment: BLI, scFv on HIS1K sensor, hCD70-hFc analyte; row for 50 nM (same fit value in all rows)
T1 construct: the order here follows the printed name; not shown: human immunoglobulin Fc (hFc)
T1 sequence (looked up): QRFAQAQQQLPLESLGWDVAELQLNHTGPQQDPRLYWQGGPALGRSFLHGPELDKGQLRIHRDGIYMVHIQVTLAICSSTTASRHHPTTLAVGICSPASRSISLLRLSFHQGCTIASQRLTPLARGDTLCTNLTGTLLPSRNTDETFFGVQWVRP

hCD70-hFc [2] = target: T1, hCD70-hFc; experiment: BLI, scFv on HIS1K sensor, hCD70-hFc analyte; row for 12.5 nM (same fit value in all rows)
hCD70-hFc [3] = target: T1, hCD70-hFc; experiment: BLI, scFv on HIS1K sensor, hCD70-hFc analyte; row for 25 nM (same fit value in all rows)
hCD70-hFc [4] = target: T1, hCD70-hFc; experiment: BLI, scFv on HIS1K sensor, hCD70-hFc analyte; row for 100 nM (same fit value in all rows)

B1: 靶向CD70 ScFv (scFv, V domains shown)
VH: EVQLVQSGPEVKKPGASVKVSCKASGYTFTDYYMNWVRQMHGKGLEWMGVINPYNGGTDYNQKFKGRVTITADKSTSTAYMELSSLRSEDTAVYYCARSVYDYPFDYWGQGTLVTVSS
VL: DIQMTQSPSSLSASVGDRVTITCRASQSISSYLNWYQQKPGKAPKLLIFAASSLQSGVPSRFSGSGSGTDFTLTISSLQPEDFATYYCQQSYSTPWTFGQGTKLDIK
hCD70-hFc [1]
  Kd: 21.4 nM
  koff: 0.0016 s⁻¹
  kon: 74000 M⁻¹ s⁻¹
hCD70-hFc [2]
  Kd: 21.4 nM
  koff: 0.0016 s⁻¹
  kon: 74000 M⁻¹ s⁻¹
hCD70-hFc [3]
  Kd: 21.4 nM
  koff: 0.0016 s⁻¹
  kon: 74000 M⁻¹ s⁻¹
hCD70-hFc [4]
  Kd: 21.4 nM
  koff: 0.0016 s⁻¹
  kon: 74000 M⁻¹ s⁻¹
